{"source": "paper PMC3161067", "about": "“Combined SAXS/EM Based Models of the S. elongatus Post-Translational Circadian Oscillator and its Interactions with the Output His-Kinase SasA” (PLoS ONE, 2011)", "binders": {"B1": {"name": "KaiA (S. elongatus) (natural protein, UniProt Q79PF6 1-284, looked up)", "chain": "MLSQIAICIWVESTAILQDCQRALSADRYQLQVCESGEMLLEYAQTHRDQIDCLILVAANPSFRAVVQQLCFEGVVVPAIVVGDRDSEDPDEPAKEQLYHSAELHLGIHQLEQLPYQVDAALAEFLRLAPVETMADHIMLMGANHDPELSSQQRDLAQRLQERLGYLGVYYKRDPDRFLRNLPAYESQKLHQAMQTSYREIVLSYFSPNSNLNQSIDNFVNMAFFADVPVTKVVEIHMELMDEFAKKLRVEGRSEDILLDYRLTLIDVIAHLCEMYRRSIPRET", "notes": "KaiA, Synechococcus elongatus; also called KaiA dimer; wt KaiA; source: E. coli BL21, GST fusion, purified"}, "B2": {"name": "wild type KaiC (S. elongatus) (natural protein, UniProt Q79PF4 1-519, looked up)", "chain": "MTSAEMTSPNNNSEHQAIAKMRTMIEGFDDISHGGLPIGRSTLVSGTSGTGKTLFSIQFLYNGIIEFDEPGVFVTFEETPQDIIKNARSFGWDLAKLVDEGKLFILDASPDPEGQEVVGGFDLSALIERINYAIQKYRARRVSIDSVTSVFQQYDASSVVRRELFRLVARLKQIGATTVMTTERIEEYGPIARYGVEEFVSDNVVILRNVLEGERRRRTLEILKLRGTSHMKGEYPFTITDHGINIFPLGAMRLTQRSSNVRVSSGVVRLDEMCGGGFFKDSIILATGATGTGKTLLVSRFVENACANKERAILFAYEESRAQLLRNAYSWGMDFEEMERQNLLKIVCAYPESAGLEDHLQIIKSEINDFKPARIAIDSLSALARGVSNNAFRQFVIGVTGYAKQEEITGLFTNTSDQFMGAHSITDSHISTITDTIILLQYVEIRGEMSRAINVFKMRGSWHDKAIREFMISDKGPDIKDSFRNFERIISGSPTRITVDEKSELSRIVRGVQEKGPES", "notes": "KaiC, Synechococcus elongatus; C-terminal residue S519; Its phosphorylation state varies in the cycling reaction; also called wt-KaiC; TST; source: E. coli BL21, purified"}, "B3": {"name": "SasA (S. elongatus His kinase) (natural protein, UniProt Q06904 1-387, looked up)", "chain": "MGESLSPQALAQPLLLQLFVDTRPLSQHIVQRVKNILAAVEATVPISLQVINVADQPQLVEYYRLVVTPALVKIGPGSRQVLSGIDLTDQLANQLPQWLVQQEAFFADREPPEVNIPFTELGQPETPALQQADAFFQLQQQYADLSERTKFLEQVIALVAHDLRNPLTAALLAVDTIQIRSQSFSVATAKEMQGLCSLFDQARSQLREIERMIAEILEATRHSGESLRINPREVVFEPLLQQVLEQLHERWRSKQQQLITDVPGDLPTLYADPDRLRQVLVNLLDNAIKYTPPGGTITIAALHRTSQKVQISISDTGSGIPRDQLSVIFKNLVRLSRDSSQEGYGIGLSVCQRIVQAHFGRIWVASELGQGSTFHFTMPVYRYTMPC", "notes": "SasA, adaptive-response sensory His kinase, Synechococcus elongatus; N-terminal sensory domain is residues 1-97; its expression and purification are not described; also called full-length SasA; wt SasA"}, "B4": {"name": "KaiC T432A/S431A double mutant (natural protein, S. elongatus, UniProt Q79PF4 1-519, looked up)", "chain": "B2 chain with S431A, T432A", "notes": "KaiC, Synechococcus elongatus, with S431A and T432A; the tag is therefore uncertain; also called KaiC-aa; S431A/T432A"}, "B5": {"name": "KaiB (S. elongatus) (natural protein, UniProt Q79PF5 1-102, looked up)", "chain": "MSPRKTYILKLYVAGNTPNSVRALKTLKNILEVEFQGVYALKVIDVLKNPQLAEEDKILATPTLAKVLPLPVRRIIGDLSDREKVLIGLDLLYGELQDSDDF", "notes": "KaiB, Synechococcus elongatus; Tetramer free in solution; The crystal model used for SAXS (PDB 2QKE) is KaiB of another species (T. elongatus); also called KaiB tetramer; wt KaiB; source: E. coli BL21, GST fusion, purified"}, "B6": {"name": "KaiC T432E/S431E double mutant (natural protein, S. elongatus, UniProt Q79PF4 1-519, looked up)", "chain": "B2 chain with S431E, T432E", "modifications": "phosphoserine at 320 (in the A and F subunits of the crystal structure)", "notes": "KaiC, Synechococcus elongatus, with S431E and T432E; the tag is therefore uncertain; also called KaiC-ee; S431E/T432E"}}, "key": {"[1]": {"biological_target": "T1, KaiBC complex (KaiB with wild type KaiC) (S. elongatus, UniProt Q79PF5 1-102; Q79PF4 1-519)", "T1 construct": "KaiB, Synechococcus elongatus, as m2; wild type KaiC, Synechococcus elongatus, as m3; KaiC phosphorylation state varies in the cycling reaction; also called KaiB-KaiC; source: formed in the in vitro cycling reaction from purified proteins; copies: + 6", "T1 sequence (looked up) 1": "B5 chain", "T1 sequence (looked up) 2": "B2 chain", "assay": "negative-stain EM; Kai complexes of the in vitro cycling reaction with 1x or 4x KaiA; reconstruction of class IV particles at ~30 Å", "settings": "both partners purified"}, "[2]": {"biological_target": "the molecule itself", "assay": "SAXS; individual proteins in solution, 0.5-2.0 mg/mL, 10 or 20°C; ab initio envelopes (DAMMIN, GASBOR) compared with crystal structures"}, "[3]": {"biological_target": "B4", "assay": "SAXS; binary complexes in solution, conditions set by native PAGE, 0.5-2.0 mg/mL, 10 or 20°C; ab initio envelopes without symmetry", "settings": "both partners purified"}, "[4]": {"biological_target": "the molecule itself", "assay": "negative-stain EM; Kai complexes of the in vitro cycling reaction with 1x or 4x KaiA; reconstruction of class IV particles at ~30 Å"}, "[5]": {"biological_target": "B4", "assay": "negative-stain EM; SasA:KaiC-aa complex, uranyl formate 0.75%, class averages and 3D reconstruction (C1) at 23.5 Å", "settings": "both partners purified"}, "[6]": {"biological_target": "B6", "assay": "SAXS; binary complexes in solution, conditions set by native PAGE, 0.5-2.0 mg/mL, 10 or 20°C; ab initio envelopes without symmetry", "settings": "both partners purified"}, "[7]": {"biological_target": "the molecule itself", "assay": "negative-stain EM; SasA:KaiC-aa complex, uranyl formate 0.75%, class averages and 3D reconstruction (C1) at 23.5 Å"}, "[8]": {"biological_target": "B2", "assay": "negative-stain EM; Kai complexes of the in vitro cycling reaction with 1x or 4x KaiA; reconstruction of class IV particles at ~30 Å", "settings": "both partners purified"}, "[9]": {"biological_target": "the molecule itself", "assay": "crystal structure; KaiC-ee with ATPγS, 3.0 Å, molecular replacement with PDB 3DVL"}}, "note": "Numbering of substitutions follows the chain as printed. Numbers in names are those of the source.", "data": [{"binder": "B1", "values": [{"measurement": "binding result", "setting": "[1]", "value": "binds"}, {"measurement": "stoichiometry N", "setting": "[2]", "value": 2}, {"measurement": "stoichiometry N", "setting": "[3]", "value": "1 KaiA dimer per KaiC hexamer"}]}, {"binder": "B2", "values": [{"measurement": "stoichiometry N", "setting": "[4]", "value": 6}]}, {"binder": "B3", "values": [{"measurement": "stoichiometry N", "setting": "[5]", "value": "2 binding sites per KaiC hexamer"}, {"measurement": "stoichiometry N", "setting": "[6]", "value": "2 SasA dimers per KaiC hexamer"}]}, {"binder": "B4", "values": [{"measurement": "stoichiometry N", "setting": "[7]", "value": 6}]}, {"binder": "B5", "values": [{"measurement": "binding result", "setting": "[8]", "value": "binds"}, {"measurement": "stoichiometry N", "setting": "[2]", "value": 4}, {"measurement": "stoichiometry N", "setting": "[6]", "value": "2 KaiB dimers per KaiC hexamer"}]}, {"binder": "B6", "values": [{"measurement": "stoichiometry N", "setting": "[9]", "value": 6}]}]}
